Measured values published in PMC3524233, “Disulfide Bonds within the C2 Domain of RAGE Play Key Roles in Its Dimerization and Biogenesis” (PLoS ONE, 2012).

B1: canonical full-length RAGE from mouse lung (receptor, mouse (endogenous in lung), UniProt Q62151 23-402, looked up)
chain: GQNITARIGEPLVLSCKGAPKKPPQQLEWKLNTGRTEAWKVLSPQGGPWDSVARILPNGSLLLPATGIVDEGTFRCRATNRRGKEVKSNYRVRVYQIPGKPEIVDPASELTASVPNKVGTCVSEGSYPAGTLSWHLDGKLLIPDGKETLVKEETRRHPETGLFTLRSELTVIPTQGGTHPTFSCSFSLGLPRRRPLNTAPIQLRVREPGPPEGIQLLVEPEGGIVAPGGTVTLTCAISAQPPPQVHWIKDGAPLPLAPSPVLLLPEVGHEDEGTYSCVATHPSHGPQESPPVSIRVTETGDEGPAEGSVGESGLGTLALALGILGGLGVVALLVGAILWRKRQPRREERKAPESQEDEEERAELNQSEEAEMPENGAGGP
notes: mouse RAGE, the canonical full-length isoform of lung tissue; source: endogenous, crude membrane fraction of wild-type (C57BL/6) mouse lung
B2: RAGE C2 domain-only fragment (residues 235-404) (domain or fragment, UniProt Q15109 235-404, looked up)
chain: LEEVQLVVEPEGGAVAPGGTVTLTCEVPAQPSPQIHWMKDGVPLPLPPSPVLILPEIGPQDQGTYSCVATHSSHGPQESRAVSISIIEPGEEGPTAGSVGGSGLGTLALALGILGGLGTAALLIGVILWQRRQRRGEERKAPENQEEEEERAELNQSEEPEAGESSTGGP
notes: RAGE C2 domain-only fragment, residues 235-404 (C2 domain with the transmembrane helix and the cytosolic portion); also called C2 fragment; source: CHO-CD14, transfected, expressed on the cell surface, in membrane extracts

How the values were obtained:
[1] = target: the molecule itself; experiment: non-reducing SDS-PAGE with immunoblot; crude membrane fraction of mouse lung (homogenised with 20 mM N-ethylmaleimide), 15 µg, 4-12% gradient gel, reducing and non-reducing, IB with anti-RAGE; RAGE knockout lung as control
[2] = target: the molecule itself; experiment: non-reducing SDS-PAGE with immunoblot; membrane extracts of transfected CHO-CD14 cells; DTT omitted from the loading buffer, 2% LDS, 80°C for 10 min, NuPAGE 4-12% Bis-Tris gel

| Protein | stoichiometry N [1] | stoichiometry N [2] |
| --- | --- | --- |
| B1 | 2 | – |
| B2 | – | 2 |
